Experimental data published in article PMC11090050.

Target: MBP-Rubicon RH (Rubicon Homology domain of Rubicon, wild type) (UniProt Q92622)
Assay: ITC; MBP-Rubicon RH (80 µM) in the chamber, RAB7A (800 µM) in the syringe; 13 injections at 25°C; 50 mM HEPES 7.5, 150 mM NaCl, 2 mM MgCl2, 10 mM TCEP; simple single-binding-site fit

Sequence of UniProt Q92622 (Q92622 699-949): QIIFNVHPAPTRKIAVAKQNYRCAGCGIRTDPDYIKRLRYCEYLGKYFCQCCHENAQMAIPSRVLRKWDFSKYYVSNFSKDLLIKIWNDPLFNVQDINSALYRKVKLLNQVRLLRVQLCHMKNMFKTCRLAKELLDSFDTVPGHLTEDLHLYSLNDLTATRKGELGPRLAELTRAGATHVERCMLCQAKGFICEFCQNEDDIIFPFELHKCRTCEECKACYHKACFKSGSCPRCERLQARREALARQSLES

For “RAB7A (recombinantly purified, unlabelled, as used for ITC) (from UniProt P51149 2-182) (natural protein)”, which Kd is on record?
The Kd was 1.7 µM.

What about the stoichiometry N of the same substance?
The stoichiometry N was 0.7.
